Measured values reported in US6835382B2, “Ii peptide therapeutics to enhance antigen presentation” (University of Massachusetts, priority 1996, dated 2004).

What was measured:
HLA-DR1 molecules [1] = experiment: exchange of biotinylated hMBP(90-102) into antigenic peptide-loaded HLA-DR1 (assay III); type: binding, human; conditions: Table 38; HLA-DR1 preloaded with unlabeled hMBP(90-102) 50 μM; exchange with biotin-labeled hMBP(90-102) 50 μM, 37° C., 1 h; fraction of positive control o.d.; no enhancement = 0.08
HLA-DR1 molecules [2] = experiment: release of biotin-labeled hMBP(90-102) from HLA-DR1 without unlabeled antigenic peptide (assay I); type: binding, human; conditions: for Relative Release: Table 36, AE101 series compound 64 μM, fraction of o.d. of positive control (PBS only = 1.0; negative control = 0.0); for release of biotin-labeled hMBP(90-102) from HLA-DR1 without second unlabeled antigenic peptide, in words: Table 36 (compounds tested at 64 μM)
HLA-DR1 molecules [3] = molecular target: T1, HLA-DR1 molecules (Homo sapiens, UniProt P01903+P01911, A100R/D57E/F55L/F60I/F76Y/I96L/L162R/M171V/P40L/Q125E/R42F/V115G/Y59C); experiment: binding of biotin-labeled hMBP(90-102) to "empty" HLA-DR1 (assay IV); conditions: Table 39; AE101 series compound 64 μM; biotin-labeled hMBP(90-102) 50 μM, 37° C., 1 h; no enhancement = 1
T1 construct: The HLA-DR alpha gene was truncated after Asn^192 to remove transmembranal and cytoplasmic regions from the protein product; A gene coding for the HLA-DR1 beta chain was truncated after position Lys^198, again to delete the transmembranal region; made in house; host or cells: insect cell line printed as HS / H5 (Invitrogen), co-infected with two baculoviruses; concentrated culture supernatant captured on 12CA5 antibody

[4] = molecular target: T2, murine E^d MHC class II allele (Mus musculus, UniProt P01904+P01915); experiment: simultaneous assay, E^d allele (A20 APC, G28.C9 T hybridoma, HEL106-116; HT-2 [3H]TdR readout); type: cell-based; parameters: The A20 and CH27 B cell lymphoma lines express H-2^d and H-2^k alleles, respectively; endogenous in cells; host or cells: A20 B cell lymphoma (mitomycin C-treated or paraformaldehyde-fixed); conditions: Table 1, 0.4 μM HEL106-116, supernatant 1:4
T2 sequence (P01904 26-255): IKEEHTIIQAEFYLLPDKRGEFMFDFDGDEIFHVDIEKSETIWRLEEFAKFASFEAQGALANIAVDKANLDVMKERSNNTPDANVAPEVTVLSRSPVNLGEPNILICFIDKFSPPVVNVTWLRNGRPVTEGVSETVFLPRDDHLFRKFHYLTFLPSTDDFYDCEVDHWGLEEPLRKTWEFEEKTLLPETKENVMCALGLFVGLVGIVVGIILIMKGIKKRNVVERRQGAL
T2 sequence (P01915 27-264 limits assumed): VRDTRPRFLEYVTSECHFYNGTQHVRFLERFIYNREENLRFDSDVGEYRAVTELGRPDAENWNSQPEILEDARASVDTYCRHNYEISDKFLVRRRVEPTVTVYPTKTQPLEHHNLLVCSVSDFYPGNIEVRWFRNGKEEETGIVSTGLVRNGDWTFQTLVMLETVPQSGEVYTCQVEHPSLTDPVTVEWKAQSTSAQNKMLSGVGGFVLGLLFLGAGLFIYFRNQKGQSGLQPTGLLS
Protocol: (§1) Examples 1-4 (Tables 1-18) will be briefly considered in order to establish the concept of tolerance discussed above. These examples describe experimental results observed in the so-called “simultaneous” assay. In the simultaneous assay four principle components are cultured together for a 24 hour period. The components of this culture, which are added simultaneously, are: (a) an antigenic peptide characterized by the ability to bind specifically into the antigenic peptide binding groove of an MHC class II molecule, (b) mitomycin C-treated, MHC class II-positive antigen presenting cells (APC) bearing the MHC class II allele required for binding of the specific antigenic peptide, and presentation of the specific antigenic peptide to the antigenic peptide-specific T cell hybridoma, (c) an effector compound of the present invention, and (d) an MHC class II allele-restricted T cell hybridoma specific for the antigenic peptide and the MHC class II allele restricting its presentation. Following incubation of this primary culture, an aliquot of its supernatant is transferred into a second culture well for incubation with an interleukin-dependent lymphoblastoid cell line. The degree of stimulation of that second, indicator cell by the interleukins which had been released from the activated T cell hybridoma in the primary culture is measured by quantitating tritiated thymidine deoxyribose {[^3H]TdR} uptake into the DNA of the HT-2 indicator cells of that second culture.
(§2) In the “simultaneous assay” the four components of the assay are cultured together for a 24 h period. The components of this primary culture, added at the same time or simultaneously, are: (a) the antigenic peptide, (b) mitomycin C-treated, MHC class II-positive antigen presenting cells (APC) with the MHC class II allele required for binding of the specific antigenic peptide and its presentation to the antigenic peptide-specific T cell hybridoma, (c) an AE101 series effector peptide, and (d) MHC class II allele-restricted T cell hybridoma specific for the antigenic peptide and the MHC class II allele restricting its presentation. At the end of the incubation of this primary culture, an aliquot of its supernatant is transferred into a second culture well for incubation with an interleukin-dependent lymphoblastoid cell line. The degree of stimulation of that second, indicator cell by the interleukins which had been released from the activated T cell hybridoma in the primary culture is measured by quantitating tritiated thymidine deoxyribose {[^3H]TdR} uptake into the DNA of the HT-2 indicator cells of that second culture.
(§3) For these various assays, the following antigenic peptides were used: HEL11-25, hen egg lysozyme 11-25, AMKRHGLDNYRGYSL(A^d) (SEQ ID NO:5); HEL46-61, hen egg lysozyme 46-61, NTDGSTDYGILQINSR(Ak) (SEQ ID NO:6); HEL106-116, hen egg lysozyme 106-116, NAWVAWRNRCK (E^d) (SEQ ID NO:7); PGCC81-104, pigeon cytochrome c 81-104, […] (Ek) (SEQ ID NO:8), and THMCC82-103, tobacco hornworm moth cytochrome c 82-103, […] (Ek) (SEQ ID NO:9). AE101 series peptides were obtained from commercial sources. In general, the purity and composition of each peptide was confirmed by HPLC separation and mass spectrometry. The native protein antigens were HEL, hen egg lysozyme, and PGCC, pigeon cytochrome C. They were obtained from commercial sources.
(§4) For the experiments of these Examples, several T cell hybridomas, which are specific for certain antigenic peptides, were used. The TPc9.1 T hybridoma is specific for pigeon cytochrome C 81-104 peptide presented on the murine class II MHC allele E^k. The TPc9.1 hybridoma responds heteroclitically to tobacco hornworm moth cytochrome c 82-103 on E^k. The 3A9 T hybridoma is specific for hen egg lysozyme 46-61 on A^k. The 9.30.B2 hybridoma is specific for hen egg lysozyme 11-25 on A^d, and the G28.C9 hybridoma is specific for hen egg lysozyme 106-116 on E^d. […]

[5] = tested on: murine E^k MHC class II allele; experiment: simultaneous assay, E^k allele (CH27 APC, TPc9.1 T hybridoma, THMCC82-103 or PGCC81-104); type: cell-based; conditions: Table 1, 0.075 μM THMCC82-103, supernatant 1:2
Protocol: as §1, §2, §3, §4

[6] = molecular target: soluble HLA-DR1 (HLA-DR alpha truncated after Asn192 with a C-terminal nine amino acid HA epitope tail; HLA-DR1 beta truncated after Lys198), made in Baculovirus-infected insect cells (human); experiment: loading ELISA: empty tethered HLA-DR1 with biotin-hMBP(90-102) 50 uM and AE peptide 64 uM, 1 h 37 C; biotin bound read by avidin-HRP
[7] = molecular target: soluble HLA-DR1 (HLA-DR alpha truncated after Asn192 with a C-terminal nine amino acid HA epitope tail; HLA-DR1 beta truncated after Lys198), made in Baculovirus-infected insect cells (human); experiment: exchange ELISA: tethered HLA-DR1 preloaded with unlabeled hMBP(90-102) 50 uM, washed; AE peptide plus biotin-hMBP(90-102) 50 uM, 1 h 37 C; biotin bound as fraction of positive control (overnight loading)
[8] = molecular target: soluble HLA-DR1 (HLA-DR alpha truncated after Asn192 with a C-terminal nine amino acid HA epitope tail; HLA-DR1 beta truncated after Lys198), made in Baculovirus-infected insect cells (human); experiment: release ELISA: soluble HLA-DR1 tethered by 12CA5 and preloaded with biotin-hMBP(90-102); AE peptide 64 uM, 1 h 37 C, no unlabeled peptide; biotin still bound read by avidin-HRP (1.0 = PBS control, 0.0 = no DR1; low value = released)
[9] = AE peptide 16 μM (second value)

For AE100 (YRMKLPKPPKPVSKMR), the “Relative Binding” value (HLA-DR1 molecules [1]) was 0.31, the “Relative Release” value (HLA-DR1 molecules [2]) was 0.37 and the “Relative Enhancement” value (HLA-DR1 molecules [3]) was 3.44.

With “AE401: The N-terminal portion of AE100 (LRMKLPKPP)” the “Relative Binding” value (HLA-DR1 molecules [1]) was 0.45, the “release of biotin-labeled hMBP(90-102) from HLA-DR1 without second unlabeled antigenic peptide, in words” value (HLA-DR1 molecules [2]) was “retained capacity to release” and the “Relative Release” value (HLA-DR1 molecules [2]) was 0.16. For the same molecule, the “Relative Enhancement” value (HLA-DR1 molecules [3]) was 4.29.

In the case of AE402 (LRMKLPKPPKPV), the “Relative Binding” value (HLA-DR1 molecules [1]) is reported as −0.03, the “Relative Release” value (HLA-DR1 molecules [2]) is reported as 0.65 and the “Relative Enhancement” value (HLA-DR1 molecules [3]) is reported as 0.33.

For AE403 (MKLPKPPKPV), the “Relative Binding” value (HLA-DR1 molecules [1]) was 0.40, the “Relative Release” value (HLA-DR1 molecules [2]) was 0.64 and the “Relative Enhancement” value (HLA-DR1 molecules [3]) was 0.47.

“AE405: comprising residue positions 5 through 12 of AE101 (LPKSAKPV)” was tested, and the “Relative Binding” value (HLA-DR1 molecules [1]) was 0.57, the “release of biotin-labeled hMBP(90-102) from HLA-DR1 without second unlabeled antigenic peptide, in words” value (HLA-DR1 molecules [2]) was “sufficient to release antigenic peptide” and the “Relative Release” value (HLA-DR1 molecules [2]) was 0.11. The “Relative Enhancement” value (HLA-DR1 molecules [3]) was 0.43.

YRMKLPKSAKPV [AE107] was tested, and the “Relative Binding” value (HLA-DR1 molecules [1]) was 1.04, the “release of hMBP(90-102) from HLA-DR1” value (HLA-DR1 molecules [2]; AE peptide at 125 nM, additional experiments) was “completely release” and the “release of biotin-labeled hMBP(90-102) from HLA-DR1 without second unlabeled antigenic peptide, in words” value (HLA-DR1 molecules [2]) was “released”. The “Relative Release” value (HLA-DR1 molecules [2]) was −0.07, the “Times Baseline Response, E^d” value [4, 9] was 4.8 and the “Times Baseline Response, E^d” value ([4]; AE peptide 64 μM (first value)) was 21.7. The “Times Baseline Response, E^k” value [5, 9] was 0.8, the “Times Baseline Response, E^k” value ([5]; AE peptide 64 μM (first value)) was 1.0 and the “Relative Enhancement” value (HLA-DR1 molecules [3]) was 2.59.

B1: AE402 (peptide)
peptide: Ac-LRMKLPKPPKPV-NH2
Molecule B1 has a Relative Enhancement (of biotin-hMBP(90-102) binding to empty HLA-DR1) (relative to no AE peptide = 1) [6] of 0.33, a Relative Binding (of biotin-hMBP(90-102) to HLA-DR1) (fraction of positive control o.d.) [7] of -0.03 and a Relative Release (fraction of positive control o.d.) [8] of 0.65.

B2: AE403 (peptide)
peptide: Ac-MKLPKPPKPV-NH2
Molecule B2 has a Relative Enhancement (of biotin-hMBP(90-102) binding to empty HLA-DR1) (relative to no AE peptide = 1) [6] of 0.47, a Relative Binding (of biotin-hMBP(90-102) to HLA-DR1) (fraction of positive control o.d.) [7] of 0.4 and a Relative Release (fraction of positive control o.d.) [8] of 0.64.

B3: AE107 (peptide)
peptide: YRMKLPKSAKPV
In the case of B3, the Relative Enhancement (of biotin-hMBP(90-102) binding to empty HLA-DR1) (relative to no AE peptide = 1) [6] is reported as 2.59, the Relative Binding (of biotin-hMBP(90-102) to HLA-DR1) (fraction of positive control o.d.) [7] is reported as 1.04 and the Relative Release (fraction of positive control o.d.) [8] is reported as -0.07.

B4: AE100 (peptide)
peptide: YRMKLPKPPKPVSKMR
B4 gave a Relative Enhancement (of biotin-hMBP(90-102) binding to empty HLA-DR1) (relative to no AE peptide = 1) [6] of 3.44, a Relative Binding (of biotin-hMBP(90-102) to HLA-DR1) (fraction of positive control o.d.) [7] of 0.31 and a Relative Release (fraction of positive control o.d.) [8] of 0.37.

B5: AE405 (peptide)
peptide: Ac-LPKSAKPV-NH2
B5 gave a Relative Enhancement (of biotin-hMBP(90-102) binding to empty HLA-DR1) (relative to no AE peptide = 1) [6] of 0.43, a Relative Binding (of biotin-hMBP(90-102) to HLA-DR1) (fraction of positive control o.d.) [7] of 0.57 and a Relative Release (fraction of positive control o.d.) [8] of 0.11.
